Data on two substances can be found in article PMC9375587.

The term pKd denotes −log10 of the Kd, conventionally taken in molar units. Lower therefore signals a large Kd. As a reminder, the koff is the first-order rate constant of dissociation. Low readings indicate a long-lived complex, high ones a short-lived complex. One may read the kon as a measure of how fast the partners come together.

pKd: −log10 of the molar value.

The target of assay [1] is 2 CP-dimeric MPO complex (CP-MPO-MPO-CP) (human (endogenous in donor blood plasma) | human) (UniProt P00450). The experiment in a line: solid-phase enzyme assay.
The target in assay [2] is Myeloperoxidase (MPO), native, dimeric (human) (UniProt P05164). The experiment in a line: SPR.

Alpha-thrombin (FIIa) (enzyme) showed a pKd in assay [1] of 7.34.
Take “Ceruloplasmin proteolyzed by thrombin (FIIa) (from UniProt P00450 501-906) (natural protein)”: in assay [2], the pKd was 6.49, the koff amounted to 0.422 s⁻¹ and the kon amounted to 12900 M⁻¹ s⁻¹.
